Key:
[1] = target: T1, S protein of the SARS-CoV-2 prototype strain on pseudo-virus (SARS-CoV-2 prototype strain, UniProt P0DTC2 14-1273); test: cell-based or functional assay
[2] = target: T1, S protein of the SARS-CoV-2 prototype …; test: cell-based or functional assay; remark: listed apart in the source
[3] = target: T2, RBD of the S protein of the 2019 original strain (2019-nCoV) (SARS-CoV-2 (2019-nCoV original strain), UniProt P0DTC2 319-541); test: ELISA on plate-coated RBD (1 µg/mL), HRP anti-human Fc detection, OD450
T2 construct: domain: RBD; also called 2019-nCoV RBD; SARS-CoV-2 RBD

B1: monoclonal antibody CoV56 (antibody, V domains shown)
VH: EVQLVESGGGVVQPGGSLRLSCAVSGFTFDDYAMHWVRQAPGKGLDWVSLISGDGSYTYYADSVKGRFTISRDSSKNSLYLQMNSLRTEDTALYYCAKAQTPTLWWLQDAFDIWGQGTMVTVSS
VL: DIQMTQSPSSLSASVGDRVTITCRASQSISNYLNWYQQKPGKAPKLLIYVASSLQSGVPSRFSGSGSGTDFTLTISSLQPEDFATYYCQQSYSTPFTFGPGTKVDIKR
notes: also called monoclonal antibody 56; 56IgG
**Q.** For B1, which “Neutralization activity (IC50) against pseudo-virus” value [1] is on record?
**A.** > 2000 ng/mL

**Q.** And the “Neutralization Effects (IC50) against SARS-CoV-2 pseudo-viruses” value [2]?
**A.** 8.38 µg/mL

**Q.** What about the EC50 [3] of the same binder?
**A.** 0.0418 nM

B2: monoclonal antibody L4.65 (antibody, V domains shown)
VH: QITLKESGPTLVKPTQTLTLTCTFSGFSLSTSGVGVAWIRQPPGKALEWLALIYWDNDKRSSPSLNNRLTITKDTSKNQVVLTMTNMDPEDTATYYCAHFFSHYDSSNYYYGSWFDPWGQGTLVTVSS
VL: EIVLTQSPGTLSLSPGERATLSCRASQSFDSRYLGWYQQKSGQAPRLLIYGASSRATGIPDRFSGSGSGTDFTLTISRLEPEDFAVYYCQQFGDSPFTFGQGTKLEIKR
notes: also called monoclonal antibody 65; 65IgG
**Q.** What does the source list for B2?
**A.** Neutralization activity (IC50) against pseudo-virus [1]: 0.97 ng/mL; Neutralization Effects (IC50) against SARS-CoV-2 pseudo-viruses [2]: 0.000709 µg/mL; EC50 [3]: 0.0173 nM

From patent publication US20260242448A1 (INSTITUTE OF MICROBIOLOGY CHINESE ACADEMY OF SCIENCES, published 2026)
